Reference: patent US20190106460A1 (published 2019)
“And” between values parts separate entries of the source, which are not always exact repeats. Equal values may be shown once. Read-outs that look alike come from different tables or passages of the source. Starred links: 1 amine or outer side, 2 acyl side, 3 side chain; linkers in the order of their positions; H or OH if unused. Non-standard residues stand in square brackets, D forms with d. *: point of attachment. Tyr(Me) = O-methyl-L-tyrosine, COc1ccc(C[C@H](N[*:1])C(=O)[*:2])cc1; Phe(4-NO2) = N[C@@H](Cc1ccc([N+](=O)[O-])cc1)C(=O)O; Benzenesulfonyl(4-OMe) = COc1ccc(S(=O)(=O)*)cc1; 2Naphthylsulfonyl = O=S(=O)(c1ccc2ccccc2c1)*; Y(Me) = COc1ccc(C[C@H](N[*:1])C(=O)[*:2])cc1; 3,4‑(MeO)2‑PhSO2 = COc1ccc(S(=O)(=O)*)cc1OC; 4‑(BuO)‑PhSO2 = CCCCOc1ccc(S(=O)(=O)*)cc1; E(OMe) = COC(=O)CC[C@H](N[*:1])C(=O)[*:2]; Phe(4-Br) = N[C@@H](Cc1ccc(Br)cc1)C(=O)O; Phe(3-F) = N[C@@H](Cc1cccc(F)c1)C(=O)O; Phe(4-F) = N[C@@H](Cc1ccc(F)cc1)C(=O)O; 1Nal = N[C@@H](Cc1cccc2ccccc12)C(=O)O; Glutaryl = O=C(CCCC(=O)[*:2])[*:1]; Suc = O=C(CCC(=O)[*:2])[*:1]; Tos = Cc1ccc(S(=O)(=O)*)cc1; βE = a beta form of Glu

Legend:
[1] = target: T1, βTrCP (tag cleaved and complexed with Skp1) (UniProt Q9Y297 175-605; P63208 1-163); test: FP competition vs fluorescein-IκB peptide
T1 construct: Protein of the FP assay (0.035 µM); also called Beta Transducin repeat-containing protein; βTrCP/Skp1
T1 sequence (Q9Y297 175-605, chain 1 of 2): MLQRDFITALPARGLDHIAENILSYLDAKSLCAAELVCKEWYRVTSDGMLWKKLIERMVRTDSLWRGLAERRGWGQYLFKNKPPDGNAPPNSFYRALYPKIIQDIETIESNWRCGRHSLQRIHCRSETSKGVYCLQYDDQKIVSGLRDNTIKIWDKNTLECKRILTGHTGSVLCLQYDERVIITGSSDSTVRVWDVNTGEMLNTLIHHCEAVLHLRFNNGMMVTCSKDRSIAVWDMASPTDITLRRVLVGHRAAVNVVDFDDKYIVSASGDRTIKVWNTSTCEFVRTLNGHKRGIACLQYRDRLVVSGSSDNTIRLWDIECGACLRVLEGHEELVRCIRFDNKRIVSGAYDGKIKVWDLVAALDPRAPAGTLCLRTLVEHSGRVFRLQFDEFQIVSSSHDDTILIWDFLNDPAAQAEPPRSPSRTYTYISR
T1 sequence (P63208 whole entry, chain 2 of 2): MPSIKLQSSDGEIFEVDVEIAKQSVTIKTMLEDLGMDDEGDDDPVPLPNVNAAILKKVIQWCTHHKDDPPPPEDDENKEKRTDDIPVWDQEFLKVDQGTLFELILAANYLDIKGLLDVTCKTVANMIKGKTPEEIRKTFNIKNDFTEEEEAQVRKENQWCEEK

Fbw7 = Fbw7 (UniProt Q969H0 263-707, limits assumed); test: cell-based or functional assay
Sequence of Fbw7 (Q969H0 263-707 limits assumed): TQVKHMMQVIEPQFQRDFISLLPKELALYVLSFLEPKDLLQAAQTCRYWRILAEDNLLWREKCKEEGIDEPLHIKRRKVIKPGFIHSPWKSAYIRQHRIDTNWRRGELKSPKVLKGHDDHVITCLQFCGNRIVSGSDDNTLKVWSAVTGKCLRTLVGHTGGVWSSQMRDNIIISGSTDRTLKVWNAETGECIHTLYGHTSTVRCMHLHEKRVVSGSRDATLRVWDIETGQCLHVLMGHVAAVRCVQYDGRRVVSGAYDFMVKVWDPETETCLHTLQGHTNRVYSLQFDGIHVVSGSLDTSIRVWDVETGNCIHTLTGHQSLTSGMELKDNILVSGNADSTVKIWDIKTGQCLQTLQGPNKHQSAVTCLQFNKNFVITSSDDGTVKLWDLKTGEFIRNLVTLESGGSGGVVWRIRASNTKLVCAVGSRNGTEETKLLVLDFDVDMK

Skp2 = Skp2 (UniProt Q13309 1-424, limits assumed); test: cell-based or functional assay
Sequence of Skp2 (Q13309 whole entry): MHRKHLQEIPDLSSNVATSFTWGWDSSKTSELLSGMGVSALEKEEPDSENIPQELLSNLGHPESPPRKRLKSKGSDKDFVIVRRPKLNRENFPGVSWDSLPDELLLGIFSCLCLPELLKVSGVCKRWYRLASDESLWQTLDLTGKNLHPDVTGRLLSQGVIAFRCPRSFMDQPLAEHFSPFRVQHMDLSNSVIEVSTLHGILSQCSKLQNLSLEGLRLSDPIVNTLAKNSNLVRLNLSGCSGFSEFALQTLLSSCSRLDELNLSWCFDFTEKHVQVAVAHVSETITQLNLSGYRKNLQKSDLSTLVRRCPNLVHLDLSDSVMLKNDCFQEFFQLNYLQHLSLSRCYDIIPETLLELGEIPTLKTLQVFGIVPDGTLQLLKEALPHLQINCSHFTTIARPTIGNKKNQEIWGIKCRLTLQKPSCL

[2] = target: T2, HisβTrCP/Skp1 and HisβTrCP/GSTSkp1 (immobilised on NTA Biacore chip) (UniProt Q9Y297 175-605; P63208 1-163); test: SPR, Biacore T200, βTrCP/Skp1 immobilised
T2 construct: SPR: KD values from both surfaces (with or without the GST moiety) were averaged to give the apparent KD; also called βTrCP surfaces
T2 sequence (Q9Y297 175-605, chain 1 of 2): as the sequence (Q9Y297 175-605, chain 1 of 2) above
T2 sequence (P63208 whole entry, chain 2 of 2): as the sequence (P63208 whole entry, chain 2 of 2) above
Description: As βTrCP was His tagged, an NTA sensor chip was used. This sensor chip has a dextran surface matrix with immobilized nitrilotriacetic acid (NTA) which provides a means of capturing polyHis-tagged proteins through Nickel chelation. It was hoped that addition of Ni⁺ would orient the protein in a specific (and hopefully active) manner as it is covalently immobilised via amine coupling. Addition of EDC:NHS (N-ethyl-N′-(3-[…])-carbodiimide:N-hydroxysuccinimide) converts carboxyl groups on the dextran sensor chip surface to succinamide esters which readily form covalent bonds with primary amines. Each chip contains four flow cells (each a separate surface) which means that compounds/peptides can be passed over different forms of βTrCP and a reference surface simultaneously. If binding to βTrCP is occurring, responses should be the same (accounting for differences in density of surface etc) on each surface.
Small molecule/peptide samples to be assayed for binding to βTrCP surfaces, were provided as 10 mM stocks in 100% DMSO. All samples were tested in running buffer composed of 10 mM HEPES pH 7.4, 150 mM NaCl, 50 μM EDTA, 0.005% p20, and 1% DMSO. Serial dilutions were made using running buffer. Samples were tested over varying concentrations up to a maximum of 100 μM. Two methods of measuring the SPR response were employed: single cycle kinetics which measures the response across different concentrations of sample within a single cycle (no regeneration of surface) and a method that measures the response at a given concentration in each cycle and includes a regeneration wash after each sample injection. The regeneration solution used was the same as running buffer, but included 500 mM NaCl. Data was fitted using Biacore T200 evaluation software. KD values calculated from binding curves from both surfaces (with or without the GST moiety) were averaged to produce apparent KD's for each sample tested.

[3] = target: T1, βTrCP (tag cleaved and complexed with …); test: FP competition vs fluorescein-IκB peptide; remark: listed apart in the source
[4] = target: T1, βTrCP (tag cleaved and complexed with …); test: FP competition vs fluorescein-IκB peptide; remark: listed apart in the source

Glutaryl-EGFFE-NH2 [Ga-EGFFE-NH2]
IC50 [1]: 65000 nM

B1: Suc-EGF-Y(Me)-E(OMe)-NH2 (peptide)
peptide: Suc-EGF[Y(Me)][E(OMe)]-NH2
SMILES: COC(=O)CC[C@H](NC(=O)[C@H](Cc1ccc(OC)cc1)NC(=O)[C@H](Cc1ccccc1)NC(=O)CNC(=O)[C@H](CCC(=O)O)NC(=O)CCC(=O)O)C(N)=O
IC50 [1]: 71000 nM

B2: Suc-EG-F(3F)-F(3F)-NH2 (peptide)
peptide: Suc-EG[Phe(3-F)][Phe(3-F)]-NH2
SMILES: NC(=O)[C@H](Cc1cccc(F)c1)NC(=O)[C@H](Cc1cccc(F)c1)NC(=O)CNC(=O)[C@H](CCC(=O)O)NC(=O)CCC(=O)O
IC50 [1]: 44000 nM

B3: Suc-EGY-F(3F)-NH2 (peptide)
peptide: Suc-EGY[Phe(3-F)]-NH2
SMILES: NC(=O)[C@H](Cc1cccc(F)c1)NC(=O)[C@H](Cc1ccc(O)cc1)NC(=O)CNC(=O)[C@H](CCC(=O)O)NC(=O)CCC(=O)O
IC50 [1]: 91000 nM

B4: Suc-EGY-F(4F)-NH2 (peptide)
peptide: Suc-EGY[Phe(4-F)]-NH2
SMILES: NC(=O)[C@H](Cc1ccc(F)cc1)NC(=O)[C@H](Cc1ccc(O)cc1)NC(=O)CNC(=O)[C@H](CCC(=O)O)NC(=O)CCC(=O)O
IC50 [1]: 71000 nM

B5: Suc-QGYF-NH2 (peptide)
peptide: Suc-QGYF-NH2
SMILES: NC(=O)CC[C@H](NC(=O)CCC(=O)O)C(=O)NCC(=O)N[C@@H](Cc1ccc(O)cc1)C(=O)N[C@@H](Cc1ccccc1)C(N)=O
IC50 [1]: 49000 nM

Suc-EGYF-NH2 [Suc-EGYF-NH2]
IC50 [1]: 31000 nM

B6: Suc-EGY-F(4NO2)-NH2 (peptide)
peptide: Suc-EGY[Phe(4-NO2)]-NH2
SMILES: NC(=O)[C@H](Cc1ccc([N+](=O)[O-])cc1)NC(=O)[C@H](Cc1ccc(O)cc1)NC(=O)CNC(=O)[C@H](CCC(=O)O)NC(=O)CCC(=O)O
IC50 [1]: 91000 nM

Suc-[βE]GYFE-NH2 (not fully specified; printed as Suc-βE-GYFE-NH2) [Suc-βE-GYFE-NH2]
IC50 [1]: 30000 nM

B7: Suc-EG-F(4NO2)-F(4NO2)-NH2 (peptide)
peptide: Suc-EG[Phe(4-NO2)][Phe(4-NO2)]-NH2
SMILES: NC(=O)[C@H](Cc1ccc([N+](=O)[O-])cc1)NC(=O)[C@H](Cc1ccc([N+](=O)[O-])cc1)NC(=O)CNC(=O)[C@H](CCC(=O)O)NC(=O)CCC(=O)O
IC50 [1]: 78000 nM

B8: 2-NaphthylSO2-dEGF(3F)WE-NH2 (peptide)
peptide: 2Naphthylsulfonyl-[dD]EG[Phe(3-F)]WE-NH2
SMILES: NC(=O)[C@H](CCC(=O)O)NC(=O)[C@H](Cc1c[nH]c2ccccc12)NC(=O)[C@H](Cc1cccc(F)c1)NC(=O)CNC(=O)[C@H](CCC(=O)O)NC(=O)[C@@H](CC(=O)O)NS(=O)(=O)c1ccc2ccccc2c1
notes: also called UBP031
% Inhibition Fbw7 @ 10 µM (Fbw7): 10%
% Inhibition Fbw7 @ (100 µM) (Fbw7): 11%
% Inhibition Skp2 @ 10 µM (Skp2): 0%
% Inhibition Skp2 @ (100 µM) (Skp2): 17%
Kd [2]: 262 nM
IC50 [3]: 44 nM
IC50 [4]: 44 nM

B9: Ts-dEGF(3F)WD-NH2 (peptide)
peptide: Tos-[dD]EG[Phe(3-F)]WD-NH2
SMILES: Cc1ccc(S(=O)(=O)N[C@H](CC(=O)O)C(=O)N[C@@H](CCC(=O)O)C(=O)NCC(=O)N[C@@H](Cc2cccc(F)c2)C(=O)N[C@@H](Cc2c[nH]c3ccccc23)C(=O)N[C@@H](CC(=O)O)C(N)=O)cc1
notes: also called UBP027
% Inhibition Fbw7 @ 10 µM (Fbw7): 3%
% Inhibition Fbw7 @ (100 µM) (Fbw7): 8%
% Inhibition Skp2 @ 10 µM (Skp2): 4%
% Inhibition Skp2 @ (100 µM) (Skp2): 6%
Kd [2]: 680 nM
IC50 [3]: 34 nM
IC50 [4]: 34 nM

B10: Ts-dDGF(3F)WD-NH2 (peptide)
peptide: Tos-[dD]DG[Phe(3-F)]WD-NH2
SMILES: Cc1ccc(S(=O)(=O)N[C@H](CC(=O)O)C(=O)N[C@@H](CC(=O)O)C(=O)NCC(=O)N[C@@H](Cc2cccc(F)c2)C(=O)N[C@@H](Cc2c[nH]c3ccccc23)C(=O)N[C@@H](CC(=O)O)C(N)=O)cc1
notes: also called UBP028
% Inhibition Fbw7 @ 10 µM (Fbw7): 4%
% Inhibition Fbw7 @ (100 µM) (Fbw7): 10%
% Inhibition Skp2 @ 10 µM (Skp2): 0%
% Inhibition Skp2 @ (100 µM) (Skp2): 14%
Kd [2]: 637 nM
IC50 [3]: 81 nM
IC50 [4]: 81 nM

B11: Ts-dDGF(3F)WE-NH2 (peptide)
peptide: Tos-[dD]DG[Phe(3-F)]WE-NH2
SMILES: Cc1ccc(S(=O)(=O)N[C@H](CC(=O)O)C(=O)N[C@@H](CC(=O)O)C(=O)NCC(=O)N[C@@H](Cc2cccc(F)c2)C(=O)N[C@@H](Cc2c[nH]c3ccccc23)C(=O)N[C@@H](CCC(=O)O)C(N)=O)cc1
notes: also called UBP025
% Inhibition Fbw7 @ 10 µM (Fbw7): 1%
% Inhibition Fbw7 @ (100 µM) (Fbw7): 8%
% Inhibition Skp2 @ 10 µM (Skp2): 0%
% Inhibition Skp2 @ (100 µM) (Skp2): 22%
Kd [2]: 292 nM
IC50 [3]: 25 nM
IC50 [4]: 25 nM

B12: Suc-EGFF-NH2 (peptide)
peptide: Suc-EGFF-NH2
SMILES: NC(=O)[C@H](Cc1ccccc1)NC(=O)[C@H](Cc1ccccc1)NC(=O)CNC(=O)[C@H](CCC(=O)O)NC(=O)CCC(=O)O
IC50 [1]: 46000 nM

B13: Suc-EG-F(4Br)-F-NH2 (peptide)
peptide: Suc-EG[Phe(4-Br)]F-NH2
SMILES: NC(=O)[C@H](Cc1ccccc1)NC(=O)[C@H](Cc1ccc(Br)cc1)NC(=O)CNC(=O)[C@H](CCC(=O)O)NC(=O)CCC(=O)O
IC50 [1]: 38000 nM and 39000 nM

B14: Suc-EG-F(4Br)-F(3F)-NH2 (peptide)
peptide: Suc-EG[Phe(4-Br)][Phe(3-F)]-NH2
SMILES: NC(=O)[C@H](Cc1cccc(F)c1)NC(=O)[C@H](Cc1ccc(Br)cc1)NC(=O)CNC(=O)[C@H](CCC(=O)O)NC(=O)CCC(=O)O
IC50 [1]: 81000 nM

{4‑(BuO)‑PhSO2}-[dD]EG[Phe(3-F)]WE-NH2 (also called UBP030) [4-(BuO)-PhSO2-dEGF(3F)WE-NH2]
% Inhibition Fbw7 @ 10 µM (Fbw7): 7%
% Inhibition Fbw7 @ (100 µM) (Fbw7): 12%
% Inhibition Skp2 @ 10 µM (Skp2): 0%
% Inhibition Skp2 @ (100 µM) (Skp2): 13%
Kd [2]: 767 nM
IC50 [3]: 56 nM
IC50 [4]: 56 nM

B15: 4-(MeO)-PhSO2-DEGF(3F)WE-NH2 (peptide)
peptide: {Benzenesulfonyl(4-OMe)}-DEG[Phe(3-F)]WE-NH2
SMILES: COc1ccc(S(=O)(=O)N[C@@H](CC(=O)O)C(=O)N[C@@H](CCC(=O)O)C(=O)NCC(=O)N[C@@H](Cc2cccc(F)c2)C(=O)N[C@@H](Cc2c[nH]c3ccccc23)C(=O)N[C@@H](CCC(=O)O)C(N)=O)cc1
notes: also called UBP026
% Inhibition Fbw7 @ 10 µM (Fbw7): 0%
% Inhibition Fbw7 @ (100 µM) (Fbw7): 8%
% Inhibition Skp2 @ 10 µM (Skp2): 15%
% Inhibition Skp2 @ (100 µM) (Skp2): 3%
Kd [2]: 495 nM
IC50 [3]: 27 nM
IC50 [4]: 27 nM

B16: 3,4-(MeO)2-PhSO2-dEGF(3F)WE-NH2 (peptide)
peptide: {3,4‑(MeO)2‑PhSO2}-[dD]EG[Phe(3-F)]WE-NH2
SMILES: COc1ccc(S(=O)(=O)N[C@H](CC(=O)O)C(=O)N[C@@H](CCC(=O)O)C(=O)NCC(=O)N[C@@H](Cc2cccc(F)c2)C(=O)N[C@@H](Cc2c[nH]c3ccccc23)C(=O)N[C@@H](CCC(=O)O)C(N)=O)cc1OC
notes: also called UBP029
% Inhibition Fbw7 @ 10 µM (Fbw7): 2%
% Inhibition Fbw7 @ (100 µM) (Fbw7): 0%
% Inhibition Skp2 @ 10 µM (Skp2): 19%
% Inhibition Skp2 @ (100 µM) (Skp2): 19%
Kd [2]: 603 nM
IC50 [3]: 42 nM
IC50 [4]: 42 nM

Suc-EG[1Nal][Phe(4-NO2)]E-NH2 [Suc-EG-1Nal-F(4NO2)-E-NH2]
IC50 [1]: 68000 nM

Suc-EG[1Nal][Tyr(Me)]E-NH2 [Suc-EG-1Nal-Y(Me)-E-NH2]
IC50 [1]: 5400 nM
